The source of these data is patent publication US20260317443 (published 2026).

Numbering of substitutions follows the chain as printed.

Sequences and labels used below:
B1: 25B05_H1-L3 (antibody, V domains shown)
VH: QVQLVQSGAEVKKPGASVKVSCKASGYTFTDYFMNWVRQAPGQRLEWMGVINPHNGGTSYSQKFQGRVTITRDTSASTAYMELSSLRSEDTAVYYCARRPLGSDYWGQGTTVTVSS
VL: DIQMTQSPSSVSASVGDRVTITCKASQNVGTAVAWYQQKPGKAPKLLIYSASSRYTEVPDRFSGSGSGTDFTLTISSLQPEDFATYYCQQYSSYPLTFGQGTKLEIK
B2: 25B05_H2-L1 (antibody, V domains shown)
VH: B1 VH with R72V, T74K, A76S
VL: B1 VL with E57G, D60S
B3: 25B05_H1-L1 (antibody, V domains shown)
VH: B1 VH
VL: B1 VL with E57G, D60S
B4: 25B05_H1-L2 (antibody, V domains shown)
VH: B1 VH
VL: B1 VL with Q3V, E57G, D60S
B5: 25B05_H4-L4 (antibody, V domains shown)
VH: B1 VH with Q1E, I70L, R72V, T74K, A76S
VL: B1 VL with Q3V
B6: 25B05_H1-L4 (antibody, V domains shown)
VH: B1 VH
VL: B1 VL with Q3V
B7: 25B05_H4-L1 (antibody, V domains shown)
VH: B1 VH with Q1E, I70L, R72V, T74K, A76S
VL: B1 VL with E57G, D60S
B8: 25B05_H2-L4 (antibody, V domains shown)
VH: B1 VH with R72V, T74K, A76S
VL: B1 VL with Q3V
B9: 25B05_H3-L1 (antibody, V domains shown)
VH: B1 VH with Q1E, R72V, T74K, A76S
VL: B1 VL with E57G, D60S
B10: 25B05_H3-L3 (antibody, V domains shown)
VH: B1 VH with Q1E, R72V, T74K, A76S
VL: B1 VL
B11: 33D03_par (antibody, V domains shown)
VH: EVQLQQSRPVLVKPGASVKMSCKASGYTFTDYYLNWVKQSPGKRLEWIGIINPYNGGTNYNQRFKGKATLTVDKSSSTAYMELNSLTSEDSAVYFCASEGLRTWFTYWGQGTLVTVSA
VL: DIVMTQSPSSLSVSAGEKVTMSCKSSQSLSNSGNQKIYLAWYQQKPGQPPKLLIYGASSRESGVPDRFTGSGSEIDFTLTISSVQAEDLAVYYCQNDHSHPFTFGSGTKLEIK
B12: 33D03_H1-L4 (antibody, V domains shown)
VH: QVQLVQSGAEVKKPGASVKVSCKASGYTFTDYYLNWVRQAPGQRLEWMGIINPYNGGTNYSQKFQGRVTITRDTSASTAYMELSSLRSEDTAVYYCASEGLRTWFTYWGQGTLVTVSS
VL: B11 VL with S9D, S12A, A15L, K18R, V19A, M21I, T69S, V84L, L89V, S106Q
B13: 33D03_H5-L4 (antibody, V domains shown)
VH: B12 VH with Q1E, S61N, K63R, Q65K, I70L, R72V, T74K, A76S
VL: B11 VL with S9D, S12A, A15L, K18R, V19A, M21I, T69S, V84L, L89V, S106Q
B14: 33D03_H3-L4 (antibody, V domains shown)
VH: B12 VH with R72V, T74K, A76S
VL: B11 VL with S9D, S12A, A15L, K18R, V19A, M21I, T69S, V84L, L89V, S106Q
B15: 33D03_H4-L1 (antibody, V domains shown)
VH: B12 VH with S61N, K63R, Q65K, R72V, T74K, A76S
VL: DIVMTQSPDSLAVSLGERATINCKSSQSLSNSGNQKIYLAWYQQKPGQPPKLLIYGASSRESGVPDRFSGSGSGTDFTLTISSLQAEDVAVYYCQNDHSHPFTFGQGTKLEIK
B16: 33D03_H3-L2 (antibody, V domains shown)
VH: B12 VH with R72V, T74K, A76S
VL: B15 VL with N22S
B17: 33D03_H3-L1 (antibody, V domains shown)
VH: B12 VH with R72V, T74K, A76S
VL: B15 VL
B18: 33D03_H5-L1 (antibody, V domains shown)
VH: B12 VH with Q1E, S61N, K63R, Q65K, I70L, R72V, T74K, A76S
VL: B15 VL
B19: 33D03_H1-L2 (antibody, V domains shown)
VH: B12 VH
VL: B15 VL with N22S
B20: 33D03_H5-L2 (antibody, V domains shown)
VH: B12 VH with Q1E, S61N, K63R, Q65K, I70L, R72V, T74K, A76S
VL: B15 VL with N22S
B21: 33D03_H1-L1 (antibody, V domains shown)
VH: B12 VH
VL: B15 VL
B22: 33D03_H5-L3 (antibody, V domains shown)
VH: B12 VH with Q1E, S61N, K63R, Q65K, I70L, R72V, T74K, A76S
VL: B15 VL with G74E, T75I

Chain of human VWF (human) (P04275 whole entry): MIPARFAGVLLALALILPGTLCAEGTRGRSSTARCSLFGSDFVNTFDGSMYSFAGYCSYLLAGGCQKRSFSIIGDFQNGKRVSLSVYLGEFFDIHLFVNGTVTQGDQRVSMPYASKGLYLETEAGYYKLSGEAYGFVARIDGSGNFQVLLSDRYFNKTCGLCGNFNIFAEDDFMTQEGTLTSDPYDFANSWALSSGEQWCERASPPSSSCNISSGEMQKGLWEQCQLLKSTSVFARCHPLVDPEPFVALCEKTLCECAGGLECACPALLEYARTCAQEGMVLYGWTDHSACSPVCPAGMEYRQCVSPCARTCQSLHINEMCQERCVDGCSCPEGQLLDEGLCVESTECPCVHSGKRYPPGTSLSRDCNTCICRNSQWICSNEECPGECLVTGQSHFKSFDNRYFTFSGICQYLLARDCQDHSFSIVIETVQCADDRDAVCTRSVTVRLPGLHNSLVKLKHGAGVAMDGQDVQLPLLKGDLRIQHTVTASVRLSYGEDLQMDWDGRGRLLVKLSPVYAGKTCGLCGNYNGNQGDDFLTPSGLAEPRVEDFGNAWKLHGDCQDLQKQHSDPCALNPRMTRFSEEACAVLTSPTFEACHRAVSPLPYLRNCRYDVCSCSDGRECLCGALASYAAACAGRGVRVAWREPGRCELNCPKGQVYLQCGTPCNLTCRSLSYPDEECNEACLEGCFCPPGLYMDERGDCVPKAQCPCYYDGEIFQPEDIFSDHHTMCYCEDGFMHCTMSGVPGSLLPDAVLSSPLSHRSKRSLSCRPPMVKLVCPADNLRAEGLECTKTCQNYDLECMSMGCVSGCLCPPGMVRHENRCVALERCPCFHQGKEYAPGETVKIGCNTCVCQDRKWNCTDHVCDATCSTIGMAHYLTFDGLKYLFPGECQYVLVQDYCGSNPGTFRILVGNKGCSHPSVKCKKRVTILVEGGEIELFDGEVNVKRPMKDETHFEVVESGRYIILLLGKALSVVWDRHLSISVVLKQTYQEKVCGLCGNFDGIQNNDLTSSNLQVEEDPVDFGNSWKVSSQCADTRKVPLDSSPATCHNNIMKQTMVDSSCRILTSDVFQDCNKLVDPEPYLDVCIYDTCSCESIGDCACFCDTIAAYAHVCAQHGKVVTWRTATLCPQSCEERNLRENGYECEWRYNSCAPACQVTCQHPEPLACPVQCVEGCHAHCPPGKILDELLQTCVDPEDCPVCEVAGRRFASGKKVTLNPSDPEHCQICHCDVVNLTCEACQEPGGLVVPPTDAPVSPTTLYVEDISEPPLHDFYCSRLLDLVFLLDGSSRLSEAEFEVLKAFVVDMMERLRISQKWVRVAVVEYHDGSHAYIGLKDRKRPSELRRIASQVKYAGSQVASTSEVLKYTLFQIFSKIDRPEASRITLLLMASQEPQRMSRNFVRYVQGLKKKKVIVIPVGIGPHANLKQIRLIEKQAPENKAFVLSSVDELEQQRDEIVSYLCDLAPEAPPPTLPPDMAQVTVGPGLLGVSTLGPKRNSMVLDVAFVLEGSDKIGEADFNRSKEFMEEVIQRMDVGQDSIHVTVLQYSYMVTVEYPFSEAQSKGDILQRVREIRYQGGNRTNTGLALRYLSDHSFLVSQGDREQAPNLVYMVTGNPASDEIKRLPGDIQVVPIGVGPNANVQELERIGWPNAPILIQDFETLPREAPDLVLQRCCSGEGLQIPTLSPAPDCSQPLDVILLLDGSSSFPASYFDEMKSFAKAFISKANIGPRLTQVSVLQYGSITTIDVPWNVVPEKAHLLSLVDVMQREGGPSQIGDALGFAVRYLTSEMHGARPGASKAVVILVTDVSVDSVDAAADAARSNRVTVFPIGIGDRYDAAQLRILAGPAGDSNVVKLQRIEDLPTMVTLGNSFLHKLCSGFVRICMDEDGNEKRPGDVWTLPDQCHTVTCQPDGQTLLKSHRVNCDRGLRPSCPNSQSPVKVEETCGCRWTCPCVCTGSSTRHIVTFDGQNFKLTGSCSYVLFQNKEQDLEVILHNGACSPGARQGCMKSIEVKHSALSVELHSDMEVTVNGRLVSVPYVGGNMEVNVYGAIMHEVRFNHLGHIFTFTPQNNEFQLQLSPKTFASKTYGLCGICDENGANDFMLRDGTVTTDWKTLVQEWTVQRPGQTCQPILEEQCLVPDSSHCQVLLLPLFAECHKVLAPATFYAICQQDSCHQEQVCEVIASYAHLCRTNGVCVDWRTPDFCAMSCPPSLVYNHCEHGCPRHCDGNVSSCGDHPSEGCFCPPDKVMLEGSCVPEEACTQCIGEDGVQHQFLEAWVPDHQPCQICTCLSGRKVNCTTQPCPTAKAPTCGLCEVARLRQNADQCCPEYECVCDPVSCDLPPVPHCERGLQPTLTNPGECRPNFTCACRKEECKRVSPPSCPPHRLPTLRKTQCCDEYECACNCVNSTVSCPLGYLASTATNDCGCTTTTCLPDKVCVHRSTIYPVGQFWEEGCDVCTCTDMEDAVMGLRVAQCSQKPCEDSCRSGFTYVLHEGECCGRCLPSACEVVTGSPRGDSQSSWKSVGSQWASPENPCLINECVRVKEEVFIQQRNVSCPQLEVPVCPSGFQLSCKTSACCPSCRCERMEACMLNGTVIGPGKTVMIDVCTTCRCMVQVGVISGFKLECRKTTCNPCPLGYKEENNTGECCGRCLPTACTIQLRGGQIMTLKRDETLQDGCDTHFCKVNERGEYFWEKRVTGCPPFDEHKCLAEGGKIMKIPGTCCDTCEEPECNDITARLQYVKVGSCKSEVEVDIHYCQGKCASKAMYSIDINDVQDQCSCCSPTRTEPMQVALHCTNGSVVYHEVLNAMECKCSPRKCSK

This assay has as its target human VWF (human). Nature of the assay: ELISA. On the technique in general: In an ELISA, binding on a coated surface is turned into a signal by an enzyme label.
What is called EC50 is the concentration at which the effect is half-maximal. In turn, B1 showed an EC50 of 0.0335 µg/mL.
Under B2 stands 0.0612 µg/mL.
The result for B3 reads 0.0312 µg/mL; that for B4, 0.0334 µg/mL.
B5 gave an EC50 of 0.0264 µg/mL.
Under B6 stands 0.0344 µg/mL; under B7, 0.0385 µg/mL; under B8, 0.0312 µg/mL.
The result for B9 reads 0.0594 µg/mL.
Under B10 stands 0.0434 µg/mL.
B11 registered an EC50 of 0.0498 µg/mL.
The result for B12 reads 0.054 µg/mL.
Under B13 stands 0.0365 µg/mL; under B14, 0.0434 µg/mL; under B15, 0.0381 µg/mL.
The molecule B16 returned an EC50 of 0.0457 µg/mL. The EC50 values of the last two molecules are within 1.5-fold of each other.
Consider B17, for which a half-maximal response (EC50) required 0.0447 µg/mL.
Under B18 stands 0.0297 µg/mL; under B19, 0.0453 µg/mL.
The result for B20 reads 0.0294 µg/mL; that for B21, 0.0437 µg/mL.
Under B22 stands 0.0335 µg/mL.
